Primed or numbered codes have the meaning given here. No end group written: not given here. fluorescein″ = fluorescein (FAM) label on the N-terminus (fluorescent label)
B1: RARA/RXRA heterodimer (ligand-binding domains) (complex)
chain 1: SESYTLTPEVGELIEKVRKAHQETFPALCQLGKYTTNNSSEQRVSLDIDLWDKFSELSTKCIIKTVEFAKQLPGFTTLTIADQITLLKAACLDILILRICTRYTPEQDTMTFSDGLTLNRTQMHNAGFGPLTDLVFAFANQLLPLEMDDAETGLLSAICLICGDRQDLEQPDRVDMLQEPLLEALKVYVRKRRPSRPHMFPKMLMKITDLRSISAKGAERVITLKMEIPGSMPPLIQEMLENSEGLD
chain 2: SSANEDMPVERILEAELAVEPKTETYVEANMGLNPSSPNDPVTNICQAADKQLFTLVEWAKRIPHFSELPLDDQVILLRAGWNELLIASFSHRSIAVKDGILLATGLHVHRNSAHSAGVGAIFDRVLTELVSKMRDMQMDKTELGCLRAIVLFNPDSKGLSNPAEVEALREKVYASLEAYCKHKYPEQPGRFAKLLLRLPALRSIGLKCLEHLFFFKLIGDTPIDTFLMEMLEAPHQMT
notes: LBD constructs are stated for the negative stain EM; also called RARA/RXRA^LBD; RARA/RXRA LBD heterodimer; source: E. coli BL21-CodonPlus(DE3)-RIL, purified (HisTrap, SEC); not shown: His6, N-terminal, kept

Experiments:
[1] = target: T1, Full-length human FLAG-UBR5 (human, UniProt O95071 1-2799); experiment: pull-down; FLAG-UBR5 (15 pmol) immobilised on FLAG M2 beads, 150 pmol nuclear receptor protein added with 50 μM agonist ligand (ATRA, 9-cis RA, both, estradiol or calcitriol); 25 mM HEPES pH 7.4, 125 mM NaCl, 0.05% TWEEN-20; 4°C; eluted with 3xFLAG peptide, western blot; conditions: both partners purified
T1 construct: UBR5 (ubiquitin protein ligase E3 component n-recognin 5), human, full length; Tetramer by SEC-MALS and cryo-EM; also called ubiquitin protein ligase E3 component n-recognin 5; UBR5 tetramer, WT; source: HEK293F (Expi293 system), transient expression, purified (FLAG M2, Mono Q, Superose 6); not shown: FLAG, N-terminal, kept

[2] = target: B1; experiment: fluorescence polarisation; competitive reverse titration: tracer Flc-NCOA1 peptide 10 nM and RARA/RXRA 0.5 μM, unlabeled competitor peptides 0–85 μM; 20 mM HEPES pH 7.4, 110 mM NaCl, 500 μM TCEP, 1% glycerol, 0.1% pluronic acid, with or without 100 μM all-trans-retinoic acid; room temperature; conditions: both partners purified

T1 sequence (O95071 whole entry): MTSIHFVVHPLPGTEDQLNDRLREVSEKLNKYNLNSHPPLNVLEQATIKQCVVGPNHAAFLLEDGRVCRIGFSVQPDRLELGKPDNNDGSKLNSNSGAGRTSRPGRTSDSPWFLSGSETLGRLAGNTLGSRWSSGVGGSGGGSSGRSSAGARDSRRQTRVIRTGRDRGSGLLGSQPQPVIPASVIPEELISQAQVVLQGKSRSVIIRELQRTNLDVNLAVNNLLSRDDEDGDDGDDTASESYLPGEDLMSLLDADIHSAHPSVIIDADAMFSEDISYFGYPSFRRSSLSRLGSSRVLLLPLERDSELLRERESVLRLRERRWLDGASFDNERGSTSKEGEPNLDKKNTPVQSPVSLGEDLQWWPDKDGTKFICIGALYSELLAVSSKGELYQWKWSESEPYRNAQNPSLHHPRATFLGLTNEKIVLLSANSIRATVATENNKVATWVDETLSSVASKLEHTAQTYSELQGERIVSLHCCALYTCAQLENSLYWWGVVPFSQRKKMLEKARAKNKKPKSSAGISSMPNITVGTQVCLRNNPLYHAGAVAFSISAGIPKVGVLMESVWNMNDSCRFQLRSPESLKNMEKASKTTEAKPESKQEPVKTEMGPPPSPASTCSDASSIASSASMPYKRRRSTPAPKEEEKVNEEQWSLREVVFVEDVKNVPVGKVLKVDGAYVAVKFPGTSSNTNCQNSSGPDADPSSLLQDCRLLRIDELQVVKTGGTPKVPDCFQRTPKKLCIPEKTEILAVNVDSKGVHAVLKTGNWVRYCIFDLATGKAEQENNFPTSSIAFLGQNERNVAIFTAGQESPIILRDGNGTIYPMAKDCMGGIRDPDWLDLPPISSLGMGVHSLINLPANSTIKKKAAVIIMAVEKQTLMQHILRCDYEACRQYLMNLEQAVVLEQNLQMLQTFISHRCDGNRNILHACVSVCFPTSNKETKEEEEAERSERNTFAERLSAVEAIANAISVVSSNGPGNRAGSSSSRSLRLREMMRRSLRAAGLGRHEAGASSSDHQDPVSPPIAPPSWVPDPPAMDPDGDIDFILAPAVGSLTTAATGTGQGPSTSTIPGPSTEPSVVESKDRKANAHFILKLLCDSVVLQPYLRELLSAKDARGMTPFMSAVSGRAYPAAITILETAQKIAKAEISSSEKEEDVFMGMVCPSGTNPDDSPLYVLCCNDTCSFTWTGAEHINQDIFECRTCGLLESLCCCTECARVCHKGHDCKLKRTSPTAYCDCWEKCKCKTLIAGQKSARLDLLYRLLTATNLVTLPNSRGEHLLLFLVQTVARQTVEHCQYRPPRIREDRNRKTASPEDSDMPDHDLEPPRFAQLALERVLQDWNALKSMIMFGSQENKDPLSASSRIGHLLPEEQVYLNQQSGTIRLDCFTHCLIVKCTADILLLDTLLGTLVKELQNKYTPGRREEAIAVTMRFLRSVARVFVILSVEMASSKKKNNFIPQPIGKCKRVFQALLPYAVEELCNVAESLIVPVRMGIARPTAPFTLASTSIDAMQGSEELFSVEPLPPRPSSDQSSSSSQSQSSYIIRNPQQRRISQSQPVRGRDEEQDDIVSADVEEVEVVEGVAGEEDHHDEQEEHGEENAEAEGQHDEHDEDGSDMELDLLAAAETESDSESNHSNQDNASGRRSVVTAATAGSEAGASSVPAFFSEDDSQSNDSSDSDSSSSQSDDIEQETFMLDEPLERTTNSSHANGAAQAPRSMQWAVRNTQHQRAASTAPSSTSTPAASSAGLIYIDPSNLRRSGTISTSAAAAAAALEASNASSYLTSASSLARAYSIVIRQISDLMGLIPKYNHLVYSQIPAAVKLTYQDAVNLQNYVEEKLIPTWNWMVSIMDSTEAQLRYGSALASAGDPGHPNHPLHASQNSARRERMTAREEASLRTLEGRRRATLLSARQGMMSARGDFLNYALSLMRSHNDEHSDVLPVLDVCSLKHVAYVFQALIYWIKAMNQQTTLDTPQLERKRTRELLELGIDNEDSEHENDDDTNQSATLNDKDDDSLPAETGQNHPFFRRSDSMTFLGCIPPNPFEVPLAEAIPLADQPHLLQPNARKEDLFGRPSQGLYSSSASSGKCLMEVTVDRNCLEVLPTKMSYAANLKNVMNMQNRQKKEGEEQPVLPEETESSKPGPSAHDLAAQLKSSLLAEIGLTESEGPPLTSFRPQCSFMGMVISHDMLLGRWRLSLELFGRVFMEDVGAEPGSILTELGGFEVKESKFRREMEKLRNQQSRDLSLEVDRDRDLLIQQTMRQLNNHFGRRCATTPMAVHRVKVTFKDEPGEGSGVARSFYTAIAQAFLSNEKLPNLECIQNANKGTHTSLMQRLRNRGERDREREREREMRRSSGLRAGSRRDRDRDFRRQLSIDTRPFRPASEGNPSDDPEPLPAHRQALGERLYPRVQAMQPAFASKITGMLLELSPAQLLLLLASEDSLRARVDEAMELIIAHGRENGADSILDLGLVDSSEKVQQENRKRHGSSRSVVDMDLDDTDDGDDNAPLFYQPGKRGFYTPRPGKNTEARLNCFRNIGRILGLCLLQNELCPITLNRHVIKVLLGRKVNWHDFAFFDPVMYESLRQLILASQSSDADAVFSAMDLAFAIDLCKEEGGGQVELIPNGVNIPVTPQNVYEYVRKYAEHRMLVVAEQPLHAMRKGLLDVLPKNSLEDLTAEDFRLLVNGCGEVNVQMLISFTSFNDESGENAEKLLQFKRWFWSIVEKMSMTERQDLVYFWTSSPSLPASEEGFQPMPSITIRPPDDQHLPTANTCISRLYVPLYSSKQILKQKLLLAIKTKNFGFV

| binding result [1] | binding result [2] | Binder |
| --- | --- | --- |
| binds |  | His-tagged RARA ligand-binding domain (aa175-421) (domain or fragment, UniProt P10276 175-421, looked up, no cleavage of the His6-Smt3 fusion is described, and the protein is called His-tagged in the pull-downs, so Smt3 was probably still on; also called His-RARA; RARA LBD; source: E. coli BL21-CodonPlus(DE3)-RIL, purified (HisTrap, SEC); not shown: His6, N-terminal, kept) SESYTLTPEVGELIEKVRKAHQETFPALCQLGKYTTNNSSEQRVSLDIDLWDKFSELSTKCIIKTVEFAKQLPGFTTLTIADQITLLKAACLDILILRICTRYTPEQDTMTFSDGLTLNRTQMHNAGFGPLTDLVFAFANQLLPLEMDDAETGLLSAICLICGDRQDLEQPDRVDMLQEPLLEALKVYVRKRRPSRPHMFPKMLMKITDLRSISAKGAERVITLKMEIPGSMPPLIQEMLENSEGLD |
| binds |  | B1 |
| binds |  | VDR aa118-427 (recombinant) (domain or fragment, UniProt P11473 118-427, looked up, also called vitamin D receptor; source: E. coli BL21-CodonPlus(DE3)-RIL, purified (HisTrap, SEC)) DSLRPKLSEEQQRIIAILLDAHHKTYDPTYSDFCQFRPPVRVNDGGGSHPSRPNSRHTPSFSGDSSSSCSDHCITSSDMMDSSSFSNLDLSEEDSDDPSVTLELSQLSMLPHLADLVSYSIQKVIGFAKMIPGFRDLTSEDQIVLLKSSAIEVIMLRSNESFTMDDMSWTCGNQDYKYRVSDVTKAGHSLELIEPLIKFQVGLKKLNLHEEEHVLLMAICIVSPDRPGVQDAALIEAIQDRLSNTLQTYIRCRHPPPGSHLLYAKMIQKLADLRSLNEEHSKQYRCLSFQPECSMKLTPLVLEVFGNEIS |
| binds |  | His-tagged ER ligand-binding domain (aa301-552) (domain or fragment, UniProt P03372 301-552, looked up, also called estrogen receptor; source: E. coli BL21-CodonPlus(DE3)-RIL, purified (HisTrap, SEC); not shown: His6, N-terminal, kept) SKKNSLALSLTADQMVSALLDAEPPILYSEYDPTRPFSEASMMGLLTNLADRELVHMINWAKRVPGFVDLTLHDQVHLLECAWLEILMIGLVWRSMEHPGKLLFAPNLLLDRNQGKCVEGMVEIFDMLLATSSRFRMMNLQGEEFVCLKSIILLNSGVYTFLSSTLKSLEEKDHIHRVLDKITDTLIHLMAKAGLTLQQQHQRLAQLLLILSHIRHMSNKGMEHLYSMKCKNVVPLYDLLLEMLDAHRLHAP |
|  | binds | {fluorescein″}-ARHKILHRLLQEGS (NCOA1 LxxLL peptide, printed as residues 687-698; also called Fluorescein NCOA1 peptide aa687-698; source: synthetic peptide; bought: Peptides & Elephants) [Fluorescein-labelled NCOA1 peptide residues 687–698 (Flc-ARHKILHRLLQEGS)] |

— article PMC11134608, “UBR5 forms ligand-dependent complexes on chromatin to regulate nuclear hormone receptor stability” (Molecular cell, 2023)
